From patent US20200270339A1 (CEPHALON, published 2020) come the findings set out here.

The target in assay [1] is T1, human IL-15 complexed with the IL-15 Receptor-alpha (human, UniProt P40933 49-162). Kind of assay: cell-based or functional assay.
Target sequence in this assay (P40933 49-162 limits assumed, one chain of several): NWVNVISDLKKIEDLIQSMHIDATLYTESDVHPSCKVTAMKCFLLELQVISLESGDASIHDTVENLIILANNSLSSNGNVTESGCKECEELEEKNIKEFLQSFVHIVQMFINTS
In assay [2] the target is T1, human IL-15 complexed with the IL-15 …. Kind of assay: cell-based or functional assay. This is another data set of the same source.
Target sequence in this assay (P40933 49-162 limits assumed, chain 1 of 2, one chain of several): as the sequence (P40933 49-162 limits assumed, one chain of several) above
Assay [3] shares this target. Kind of assay: cell-based or functional assay. This is another data set of the same source.
Target sequence in this assay (P40933 49-162 limits assumed, one chain of several): as above
Assay [4] has the same target. The assay can be described thus: SPR.
Target sequence in this assay (P40933 49-162 limits assumed, one chain of several): as above
The target is the same in assay [5]. Kind of assay: SPR. The source holds these as a separate data set. On the technique in general: SPR reads the build-up and loss of mass on a sensor chip optically.
Target sequence in this assay (P40933 49-162 limits assumed, one chain of several): as above
For assay [6] the target is unchanged. The assay can be described thus: SPR. The source holds these as a separate data set.
Target sequence in this assay (P40933 49-162 limits assumed, one chain of several): as above
Assay [7] has the same target. The assay can be described thus: SPR. This is another data set of the same source.
Target sequence in this assay (P40933 49-162 limits assumed, one chain of several): as above
Assay [8] shares this target. Kind of assay: SPR. The source holds these as a separate data set.
For assay [9] the target is unchanged. The assay can be described thus: SPR. The source holds these as a separate data set.
For assay [10] the target is unchanged. The assay can be described thus: SPR. The source holds these as a separate data set.
Assay [11] has as its target T2, uncomplexed IL-15 Receptor α (human).
T2 construct: also called IL-15Rα; IL15Rα
T2 chain: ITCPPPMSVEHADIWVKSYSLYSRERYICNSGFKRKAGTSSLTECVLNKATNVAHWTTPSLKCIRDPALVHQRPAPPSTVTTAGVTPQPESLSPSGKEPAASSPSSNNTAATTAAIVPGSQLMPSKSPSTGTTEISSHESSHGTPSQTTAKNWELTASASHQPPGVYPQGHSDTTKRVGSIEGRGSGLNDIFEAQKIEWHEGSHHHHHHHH
Kind of assay: SPR, antibody captured on Protein A chip.

The target in another assay is IL-2 (UniProt P60568 21-153). Kind of assay: SPR, antibody captured on Protein A chip.
Chain of IL-2 (P60568 21-153 limits assumed): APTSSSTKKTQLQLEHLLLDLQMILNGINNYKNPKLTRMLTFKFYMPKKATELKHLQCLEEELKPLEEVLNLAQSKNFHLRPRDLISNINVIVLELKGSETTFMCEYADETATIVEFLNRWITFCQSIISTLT
In a further assay the target is IL-9 (UniProt P15248 19-144). Kind of assay: SPR, antibody captured on Protein A chip.
Chain of IL-9 (P15248 19-144 limits assumed): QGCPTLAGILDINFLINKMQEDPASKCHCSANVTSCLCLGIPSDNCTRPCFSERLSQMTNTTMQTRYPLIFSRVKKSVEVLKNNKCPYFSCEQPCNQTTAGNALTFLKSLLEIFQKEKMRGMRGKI
The target of another assay is T3, IL-4 (UniProt P05112 25-153).
T3 sequence (looked up): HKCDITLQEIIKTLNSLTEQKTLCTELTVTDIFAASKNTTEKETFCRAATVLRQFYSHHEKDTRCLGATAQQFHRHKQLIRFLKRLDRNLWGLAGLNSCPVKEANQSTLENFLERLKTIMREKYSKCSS
The assay can be described thus: SPR, antibody captured on Protein A chip.

The target of another assay is IL-21 (UniProt Q9HBE4 30-162, limits assumed). Kind of assay: SPR, antibody captured on Protein A chip.
Chain of IL-21 (Q9HBE4 30-162 limits assumed): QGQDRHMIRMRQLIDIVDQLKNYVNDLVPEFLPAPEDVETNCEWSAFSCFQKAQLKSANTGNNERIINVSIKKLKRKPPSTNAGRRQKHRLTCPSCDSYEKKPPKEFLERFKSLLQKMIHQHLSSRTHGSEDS
The target in another assay is T4, IL-7 (UniProt P13232 26-177).
T4 sequence (looked up): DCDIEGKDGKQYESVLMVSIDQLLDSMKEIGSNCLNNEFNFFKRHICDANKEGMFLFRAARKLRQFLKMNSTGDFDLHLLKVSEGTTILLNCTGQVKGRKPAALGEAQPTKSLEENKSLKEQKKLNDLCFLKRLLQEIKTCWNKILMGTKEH
Kind of assay: SPR, antibody captured on Protein A chip.

The target in assay [12] is T1, human IL-15 complexed with the IL-15 …. Kind of assay: SPR. This is another data set of the same source.
For assay [13] the target is unchanged. Kind of assay: cell-based or functional assay. This is another data set of the same source.

Numbering of substitutions follows the chain as printed. Where “and” joins values, the source holds several entries; their conditions need not be identical. Identical values can stand only once. Like-named read-outs stand apart in the source and are kept apart here. Where only a bound is given, the exact number is not on record here.

By Kd is commonly meant the free concentration of one partner at which half of the binding sites on the other are occupied at equilibrium, for simple one-to-one binding. Low values mean a tighter complex, high ones a looser complex. The koff is a measure of how fast the partners let go of each other. Higher therefore signals fast dissociation. One may read the kon as the second-order rate constant of association. A low value points to slow association.

B1: Antibody 11 (antibody, V domains shown)
VH: QVQLQESGPGLVKPSGTLSLTCAVSGGSISSSNWWSWVRQPPGKGLEWIGEIYHYGYTNYNPSLKSRVTISVDKSKNQFSLKLISVTAADTAVYYCAREGIGWPSFDYWGQGTLVTVSS
VL: SSELTQDPAASVALGQTVRITCQGDTLRNYYASWYQQKPGQAPILVIYGKNNRPSGIPDRFSGSSSGNTASLTITGAQAEDEADYYCNSRDSSGKNLVFGGGTKLTVLG
B1: the “NK-92 cell proliferation assay, potency (IC50)” value in assay [1] stood at 0.0074 nM. Further, the “IC 50 (NK-92) in pM” value in assay [2] came out at 6.3 pM. Also, the “fold improvement of IC50 in the NK-92 cell proliferation assay compared to Antibody 4” value in assay [3] was no less than 10 fold.

B2: VL_K051A (antibody, V domains shown)
VH: B1 VH with Y55S, Y57N
VL: SSELTQDPAASVALGQTVRITCQGDTLRNYYASWYQQKPGQAPILVIYGANNRPSGIPDRFSGSSSGNTASLTITGAQAEDEADYYCNSRDSSGKNLVFGGGTKLTVL
notes: Antibody 4 with one substitution; also called ANTIBODY 30
In the case of B2, the Kd in assay [4] was 0.942 nM.

B3: VH_N058Q (antibody, V domains shown)
VH: B1 VH with Y55S, Y57N, N59Q
VL: B2 VL with A50K
Consider B3, for which the affinity in [5], expressed as Kd, was 0.765 nM.

B4: VL_K051L (antibody, V domains shown)
VH: B1 VH with Y55S, Y57N
VL: B2 VL with A50L
notes: Antibody 4 with one substitution; also called ANTIBODY 32
In turn, B4 returned a Kd in assay [4] of 0.865 nM.

B5: VH_T057D (antibody, V domains shown)
VH: B1 VH with Y55S, Y57N, T58D
VL: B2 VL with A50K
notes: Antibody 4 with one substitution; also called ANTIBODY 25
In [5], B5 returned a Kd of 0.64 nM.

B6: VL_R054L (antibody, V domains shown)
VH: B1 VH with Y55S, Y57N
VL: B2 VL with A50K, R53L
notes: Antibody 4 with one substitution; also called ANTIBODY 33
With B6, the Kd in [6] stood at 0.845 nM.

B7: VL_N030S (antibody, V domains shown)
VH: B1 VH with Y55S, Y57N
VL: B2 VL with N29S, A50K
notes: Antibody 4 with one substitution; also called ANTIBODY 51
In [7], B7 returned a dissociation constant Kd of 2.41 nM.

B8: VL_K051H (antibody, V domains shown)
VH: B1 VH with Y55S, Y57N
VL: B2 VL with A50H
notes: Antibody 4 with one substitution; also called ANTIBODY 31
As to B8, the affinity in assay [8], expressed as Kd, was 0.73 nM.

B9: VL_R054Q (antibody, V domains shown)
VH: B1 VH with Y55S, Y57N
VL: B2 VL with A50K, R53Q
notes: Antibody 4 with one substitution; also called ANTIBODY 34
Take B9: binding in assay [6] was put at a Kd of 0.892 nM.

B10: VL_D092S (antibody, V domains shown)
VH: B1 VH with Y55S, Y57N
VL: B2 VL with A50K, D91S
notes: Antibody 4 with one substitution; also called ANTIBODY 16
With B10, in assay [9], binding was put at a Kd of 2.15 nM.

B11: VL_G050S (antibody, V domains shown)
VH: B1 VH with Y55S, Y57N
VL: B2 VL with G49S, A50K
notes: Antibody 4 with one substitution; also called ANTIBODY 29
As for B11, the affinity in assay [10], expressed as Kd, was 1.58 nM.

B12: VL_R054Y (antibody, V domains shown)
VH: B1 VH with Y55S, Y57N
VL: B2 VL with A50K, R53Y
notes: Antibody 4 with one substitution; also called ANTIBODY 35
B12 had an equilibrium dissociation constant (Kd) in assay [6] of 0.784 nM.

B13: Antibody 70b (antibody, human IgG1, lambda)
heavy: QVQLQESGPGLVKPSGTLSLTCAVSGGSISSSNWWSWVRQPPGKGLEWIGEIYHYGYTNYNPSLKSRVTISVDKSKNQFSLKLSSVTAADTAVYYCAREGIGWPSFDYWGQGTLVTVSSASTKGPSVFPLAPSSKSTSGGTAALGCLVKDYFPEPVTVSWNSGALTSGVHTFPAVLQSSGLYSLSSVVTVPSSSLGTQTYICNVNHKPSNTKVDKKVEPKSCDKTHTCPPCPAPELLGGPSVFLFPPKPKDTLYITREPEVTCVVVDVSHEDPEVKFNWYVDGVEVHNAKTKPREEQYNSTYRVVSVLTVLHQDWLNGKEYKCKVSNKALPAPIEKTISKAKGQPREPQVYTLPPSRDELTKNQVSLTCLVKGFYPSDIAVEWESNGQPENNYKTTPPVLDSDGSFFLYSKLTVDKSRWQQGNVFSCSVMHEALHNHYTQKSLSLSPG
light: SSELTQDPAASVALGQTVRITCQGDTLRSYYASWYQQKPGQAPILVIYGKNNRPSGIPDRFSGSSSGNTASLTITGAQAEDEADYYCNSRDLSGKNLVFGGGTKLTVLGQPKAAPSVTLFPPSSEELQANKATLVCLISDFYPGAVTVAWKADSSPVKAGVETTTPSKQSNNKYAASSYLSLTPEQWKSHRSYSCQVTHEGSTVEKTVAPTECS
Turning to B13, the binding result (in assay [11]; with IL-2; with IL-9; with IL-4; with IL-21; with IL-7) was “no binding (tested: 10 µg/mL)” in each case. Further, the Kd in assay [12] was 0.154 nM and 0.157 nM. In addition, in [12], the koff was 3.92e-05 s⁻¹ and 3.89e-05 s⁻¹. The kon in [12] is 249000 M⁻¹ s⁻¹ and 254000 M⁻¹ s⁻¹. The “Max IC50 (pM), NK-92 proliferation assay” value in assay [13] worked out at 16.6 pM. Moreover, in assay [13], the “Mean IC50 (pM), NK-92 proliferation assay” value is 13.3 pM. Besides, the “Min IC50 (pM), NK-92 proliferation assay” value in assay [13] turned out to be 10.6 pM.

B14: Antibody 70e (antibody, human IgG4 S228P, lambda)
heavy: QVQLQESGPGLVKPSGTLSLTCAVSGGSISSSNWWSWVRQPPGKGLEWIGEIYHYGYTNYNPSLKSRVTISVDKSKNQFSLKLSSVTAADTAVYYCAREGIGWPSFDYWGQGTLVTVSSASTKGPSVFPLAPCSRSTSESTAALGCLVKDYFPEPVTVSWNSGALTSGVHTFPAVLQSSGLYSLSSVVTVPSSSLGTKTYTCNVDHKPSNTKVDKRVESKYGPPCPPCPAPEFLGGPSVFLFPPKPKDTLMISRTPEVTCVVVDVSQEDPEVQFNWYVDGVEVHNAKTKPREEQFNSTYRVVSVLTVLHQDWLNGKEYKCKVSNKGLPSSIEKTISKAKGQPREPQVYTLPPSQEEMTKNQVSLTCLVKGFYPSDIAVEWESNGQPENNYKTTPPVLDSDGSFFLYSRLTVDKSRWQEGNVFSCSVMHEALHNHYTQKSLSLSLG
light: B13 light
On to B14, for which the binding result (in assay [11]; in the assay with IL-2; with IL-9; with IL-4; with IL-21; with IL-7) was “no binding (tested: 10 µg/mL)” in each case. The Kd in [12] was 0.174 nM and 0.193 nM. Also, the off-rate (koff) in [12] was 4.31e-05 s⁻¹ and 4.58e-05 s⁻¹. Also, in assay [12], the kon was 237000 M⁻¹ s⁻¹ and 247000 M⁻¹ s⁻¹. In [13], the “Max IC50 (pM), NK-92 proliferation assay” value is 20.9 pM. Moreover, the “Mean IC50 (pM), NK-92 proliferation assay” value in assay [13] was 15.7 pM. For the same molecule, the “Min IC50 (pM), NK-92 proliferation assay” value in [13] stood at 11.7 pM.
